Experiments:
Assay in all cases: cell-based or functional assay
[1] = target: dGB2 12A (ordered C-terminus 717–728 replaced by 12 alanines) (Drosophila melanogaster, UniProt Q9BML6 1-1220, 12A: residues 717–728 replaced with 12 consecutive alanine residues)
[2] = target: T1, human GB2 Δ760 (human, UniProt O75899 42-760)
T1 sequence (looked up): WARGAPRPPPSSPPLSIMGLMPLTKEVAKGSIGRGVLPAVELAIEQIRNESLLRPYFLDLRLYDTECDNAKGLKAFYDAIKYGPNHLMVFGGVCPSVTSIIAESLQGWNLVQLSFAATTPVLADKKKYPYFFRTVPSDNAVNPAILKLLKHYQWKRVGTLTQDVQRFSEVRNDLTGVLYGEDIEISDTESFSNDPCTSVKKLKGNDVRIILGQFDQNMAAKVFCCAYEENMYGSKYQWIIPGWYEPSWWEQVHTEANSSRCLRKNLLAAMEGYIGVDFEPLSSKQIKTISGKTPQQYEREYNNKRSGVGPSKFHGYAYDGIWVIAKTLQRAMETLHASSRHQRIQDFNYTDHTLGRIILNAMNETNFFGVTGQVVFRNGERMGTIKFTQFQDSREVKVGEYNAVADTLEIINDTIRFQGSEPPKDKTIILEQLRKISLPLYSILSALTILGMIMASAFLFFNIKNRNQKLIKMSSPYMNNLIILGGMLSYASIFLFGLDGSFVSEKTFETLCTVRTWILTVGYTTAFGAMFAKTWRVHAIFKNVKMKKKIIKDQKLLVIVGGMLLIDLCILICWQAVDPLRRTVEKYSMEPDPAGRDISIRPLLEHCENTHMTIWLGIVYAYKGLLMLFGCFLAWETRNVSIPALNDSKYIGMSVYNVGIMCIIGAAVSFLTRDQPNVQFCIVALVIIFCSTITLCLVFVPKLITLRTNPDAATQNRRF

[3] = target: T2, human GB2 Δ753 (human, UniProt O75899 42-753)
T2 sequence (looked up): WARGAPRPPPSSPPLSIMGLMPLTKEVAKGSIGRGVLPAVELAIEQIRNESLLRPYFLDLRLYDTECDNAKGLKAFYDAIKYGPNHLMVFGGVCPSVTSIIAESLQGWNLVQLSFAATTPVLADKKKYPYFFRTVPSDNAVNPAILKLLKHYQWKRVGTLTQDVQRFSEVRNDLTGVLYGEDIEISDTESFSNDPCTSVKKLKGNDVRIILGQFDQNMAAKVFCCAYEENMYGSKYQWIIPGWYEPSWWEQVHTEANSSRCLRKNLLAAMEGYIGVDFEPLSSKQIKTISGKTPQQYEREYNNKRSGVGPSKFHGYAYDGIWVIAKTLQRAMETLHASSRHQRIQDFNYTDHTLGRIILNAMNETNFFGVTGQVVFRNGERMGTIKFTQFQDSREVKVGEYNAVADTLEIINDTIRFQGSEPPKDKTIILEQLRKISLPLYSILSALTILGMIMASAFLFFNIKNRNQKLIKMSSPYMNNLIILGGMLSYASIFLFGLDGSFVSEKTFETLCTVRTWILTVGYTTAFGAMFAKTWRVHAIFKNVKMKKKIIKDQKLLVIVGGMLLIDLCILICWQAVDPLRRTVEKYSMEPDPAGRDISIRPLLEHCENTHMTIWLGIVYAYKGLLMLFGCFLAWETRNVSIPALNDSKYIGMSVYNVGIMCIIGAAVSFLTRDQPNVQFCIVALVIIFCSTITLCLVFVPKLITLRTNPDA

[4] = target: T3, human GB2 Δ765 (human, UniProt O75899 42-765)
T3 sequence (looked up): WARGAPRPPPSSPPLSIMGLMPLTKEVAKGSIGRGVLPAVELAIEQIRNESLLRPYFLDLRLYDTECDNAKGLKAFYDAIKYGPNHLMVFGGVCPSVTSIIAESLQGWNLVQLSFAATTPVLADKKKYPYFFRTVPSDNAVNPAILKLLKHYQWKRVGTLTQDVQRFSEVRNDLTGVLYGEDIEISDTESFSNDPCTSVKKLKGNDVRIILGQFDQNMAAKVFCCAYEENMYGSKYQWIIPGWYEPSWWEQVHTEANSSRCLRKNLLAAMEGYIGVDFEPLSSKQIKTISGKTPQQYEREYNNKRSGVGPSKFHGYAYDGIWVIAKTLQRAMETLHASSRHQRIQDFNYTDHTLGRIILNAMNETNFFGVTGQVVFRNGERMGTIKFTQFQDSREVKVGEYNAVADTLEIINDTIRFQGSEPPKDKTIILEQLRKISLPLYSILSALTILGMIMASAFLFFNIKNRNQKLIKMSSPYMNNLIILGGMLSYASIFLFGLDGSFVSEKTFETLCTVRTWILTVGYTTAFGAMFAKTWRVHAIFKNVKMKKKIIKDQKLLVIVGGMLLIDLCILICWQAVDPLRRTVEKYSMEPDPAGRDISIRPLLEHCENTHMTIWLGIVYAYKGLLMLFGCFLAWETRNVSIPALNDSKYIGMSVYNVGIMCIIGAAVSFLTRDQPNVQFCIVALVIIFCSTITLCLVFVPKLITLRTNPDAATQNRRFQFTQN

[5] = target: T4, human GB2 Δ772 (human, UniProt O75899 42-772)
T4 sequence (looked up): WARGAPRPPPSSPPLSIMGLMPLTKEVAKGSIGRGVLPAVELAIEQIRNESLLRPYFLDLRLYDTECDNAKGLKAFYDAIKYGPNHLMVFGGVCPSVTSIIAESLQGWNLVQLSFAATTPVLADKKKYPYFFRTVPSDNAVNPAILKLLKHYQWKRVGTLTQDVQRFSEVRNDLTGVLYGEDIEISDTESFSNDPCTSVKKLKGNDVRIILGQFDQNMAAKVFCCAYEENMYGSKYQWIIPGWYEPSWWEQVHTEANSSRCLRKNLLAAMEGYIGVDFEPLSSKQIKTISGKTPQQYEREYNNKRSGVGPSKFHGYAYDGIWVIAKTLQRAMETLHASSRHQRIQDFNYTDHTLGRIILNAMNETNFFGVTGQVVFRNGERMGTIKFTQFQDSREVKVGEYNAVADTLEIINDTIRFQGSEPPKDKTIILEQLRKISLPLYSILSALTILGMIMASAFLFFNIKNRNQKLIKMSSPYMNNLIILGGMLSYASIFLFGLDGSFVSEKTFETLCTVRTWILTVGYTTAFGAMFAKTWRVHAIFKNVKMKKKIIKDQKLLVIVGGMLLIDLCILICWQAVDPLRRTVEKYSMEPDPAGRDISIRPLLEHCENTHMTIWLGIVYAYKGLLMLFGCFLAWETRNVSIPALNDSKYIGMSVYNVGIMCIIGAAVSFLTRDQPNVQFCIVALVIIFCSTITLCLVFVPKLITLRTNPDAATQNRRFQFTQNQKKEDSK

[6] = target: dGB2 4 × GSG (ordered C-terminus 717–728 replaced by four glycine-serine-glycine) (Drosophila melanogaster, UniProt Q9BML6 1-1220, 4 × GSG: residues 717–728 replaced with four consecutive glycine-serine-glycine)
Chain of dGB2 4 × GSG (ordered C-terminus 717–728 replaced by four glycine-serine-glycine) (Q9BML6 entry or part of it with the stated changes): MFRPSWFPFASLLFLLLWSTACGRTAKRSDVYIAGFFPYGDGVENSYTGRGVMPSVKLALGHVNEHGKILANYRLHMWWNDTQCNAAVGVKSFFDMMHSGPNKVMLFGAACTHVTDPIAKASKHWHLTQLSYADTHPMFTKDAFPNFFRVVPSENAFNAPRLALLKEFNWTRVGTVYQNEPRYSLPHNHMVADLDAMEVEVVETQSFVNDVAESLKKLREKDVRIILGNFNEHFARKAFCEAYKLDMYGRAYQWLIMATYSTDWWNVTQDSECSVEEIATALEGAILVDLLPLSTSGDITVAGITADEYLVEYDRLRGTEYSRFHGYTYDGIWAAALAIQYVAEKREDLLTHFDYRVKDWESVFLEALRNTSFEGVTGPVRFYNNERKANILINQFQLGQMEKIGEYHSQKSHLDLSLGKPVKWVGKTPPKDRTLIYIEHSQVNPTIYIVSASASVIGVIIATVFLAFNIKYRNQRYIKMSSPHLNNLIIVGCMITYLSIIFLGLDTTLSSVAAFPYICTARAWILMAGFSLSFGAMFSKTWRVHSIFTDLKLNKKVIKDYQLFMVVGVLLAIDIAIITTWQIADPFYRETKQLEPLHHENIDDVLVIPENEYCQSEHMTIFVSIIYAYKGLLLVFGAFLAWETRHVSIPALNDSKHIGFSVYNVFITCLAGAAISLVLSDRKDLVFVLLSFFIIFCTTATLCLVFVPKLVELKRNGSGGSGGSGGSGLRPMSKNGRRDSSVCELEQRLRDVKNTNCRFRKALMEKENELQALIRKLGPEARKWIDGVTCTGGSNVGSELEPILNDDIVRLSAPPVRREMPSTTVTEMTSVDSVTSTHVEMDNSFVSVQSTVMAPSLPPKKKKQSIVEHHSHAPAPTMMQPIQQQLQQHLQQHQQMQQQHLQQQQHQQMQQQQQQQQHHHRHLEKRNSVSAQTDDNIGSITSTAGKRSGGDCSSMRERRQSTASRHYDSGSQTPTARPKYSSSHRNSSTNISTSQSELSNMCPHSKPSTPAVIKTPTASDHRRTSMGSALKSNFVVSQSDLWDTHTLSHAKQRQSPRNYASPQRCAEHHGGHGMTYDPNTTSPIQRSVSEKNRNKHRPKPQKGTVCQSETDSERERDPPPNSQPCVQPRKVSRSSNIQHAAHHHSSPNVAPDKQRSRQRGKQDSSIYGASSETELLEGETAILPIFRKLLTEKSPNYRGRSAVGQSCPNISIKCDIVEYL

Chain of dGB2 12A (ordered C-terminus 717–728 replaced by 12 alanines) (Q9BML6 entry or part of it with the stated changes): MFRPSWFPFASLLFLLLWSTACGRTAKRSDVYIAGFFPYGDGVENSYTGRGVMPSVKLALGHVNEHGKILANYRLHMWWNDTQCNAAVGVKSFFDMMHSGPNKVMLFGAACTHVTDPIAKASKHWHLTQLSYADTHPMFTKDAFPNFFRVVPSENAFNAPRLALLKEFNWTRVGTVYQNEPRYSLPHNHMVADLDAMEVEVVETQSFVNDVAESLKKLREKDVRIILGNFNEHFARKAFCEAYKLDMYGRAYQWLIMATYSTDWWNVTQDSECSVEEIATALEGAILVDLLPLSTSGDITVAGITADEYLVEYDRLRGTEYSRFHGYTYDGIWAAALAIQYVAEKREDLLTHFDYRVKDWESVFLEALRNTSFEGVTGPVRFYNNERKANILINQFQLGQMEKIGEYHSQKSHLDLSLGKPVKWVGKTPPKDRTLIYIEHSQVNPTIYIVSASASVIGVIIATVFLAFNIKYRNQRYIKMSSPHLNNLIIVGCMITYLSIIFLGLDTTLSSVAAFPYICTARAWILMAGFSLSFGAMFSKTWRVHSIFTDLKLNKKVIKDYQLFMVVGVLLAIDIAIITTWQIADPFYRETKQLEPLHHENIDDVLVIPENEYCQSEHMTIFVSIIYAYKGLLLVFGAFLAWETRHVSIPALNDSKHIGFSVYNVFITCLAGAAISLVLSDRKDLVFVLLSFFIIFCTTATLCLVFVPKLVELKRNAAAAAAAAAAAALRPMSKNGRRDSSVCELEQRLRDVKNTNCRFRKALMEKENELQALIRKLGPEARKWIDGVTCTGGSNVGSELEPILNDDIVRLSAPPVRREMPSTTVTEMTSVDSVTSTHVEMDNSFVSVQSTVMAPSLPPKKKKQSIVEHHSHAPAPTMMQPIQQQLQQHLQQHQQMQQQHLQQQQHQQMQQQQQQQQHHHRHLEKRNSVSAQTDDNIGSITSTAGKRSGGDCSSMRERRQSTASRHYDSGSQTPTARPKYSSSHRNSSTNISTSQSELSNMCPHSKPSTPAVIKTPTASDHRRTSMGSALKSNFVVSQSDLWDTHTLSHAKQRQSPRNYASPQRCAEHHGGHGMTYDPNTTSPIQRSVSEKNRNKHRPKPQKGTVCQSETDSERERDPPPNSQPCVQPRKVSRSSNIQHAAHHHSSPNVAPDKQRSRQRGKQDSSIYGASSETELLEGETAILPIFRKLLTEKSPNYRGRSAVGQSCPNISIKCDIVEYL

BRET assay of GABA-induced dissociation of Gαi1 and Gβγ in HEK293 cells, change of EC50 against wild-type dGB2 [1]: 8.8 fold | GABA-induced intracellular Ca2+ release (Gqi9), change of EC50 of GABA against wild-type dGB2 [1]: 2 fold | GABA-induced intracellular Ca2+ release, HEK293 cells co-transfected with GB1ΔCC and the GB2 truncation, increase in EC50 against Δ780 of GB2 [2]: 16.2 fold | GABA-induced intracellular Ca2+ release, HEK293 cells co-transfected with GB1ΔCC and the GB2 truncation, reduction in E max against Δ780 of GB2 [2]: 39 % reduction in E max | GABA-induced intracellular Ca2+ release, HEK293 cells co-transfected with GB1ΔCC and the GB2 truncation, increase in EC50 against Δ780 of GB2 [3]: 30.8 fold | GABA-induced intracellular Ca2+ release, HEK293 cells co-transfected with GB1ΔCC and the GB2 truncation, reduction in E max against Δ780 of GB2 [3]: 76 % reduction in E max | GABA-induced intracellular Ca2+ release, HEK293 cells co-transfected with GB1ΔCC and the GB2 truncation, increase in EC50 against Δ780 of GB2 [4]: 9.4 fold | GABA-induced intracellular Ca2+ release, HEK293 cells co-transfected with GB1ΔCC and the GB2 truncation, reduction in E max against Δ780 of GB2 [4]: 22 % reduction in E max | GABA-induced intracellular Ca2+ release, HEK293 cells co-transfected with GB1ΔCC and the GB2 truncation, increase in EC50 against Δ780 of GB2 [5]: 6.5 fold | BRET assay of GABA-induced dissociation of Gαi1 and Gβγ in HEK293 cells, change of EC50 against wild-type dGB2 [6]: 3 fold
B1: dominant-negative Gαi1 (S47N, G203A, E245A, A326S) (natural protein, human)
chain: MGCTLSAEDKAAVERSKMIDRNLREDGEKAAREVKLLLLGAGESGKNTIVKQMKIIHEAGYSEEECKQYKAVVYSNTIQSIIAIIRAMGRLKIDFGDSARADDARQLFVLAGAAEEGFMTAELAGVIKRLWKDSGVQACFNRSREYQLNDSAAYYLNDLDRIAQPNYIPTQQDVLRTRVKTTGIVETHFTFKDLHFKMFDVGAQRSERKKWIHCFEGVTAIIFCVALSDYDLVLAEDEEMNRMHASMKLFDSICNNKWFTDTSIILFLNKKDLFEEKIKKSPLTICYPEYAGSNTYEEAAAYIQCQFEDLNKRKDTKEIYTHFTCSTDTKNVQFVFDAVTDVIIKNNLKDCGLF

— publication PMC12499500, “Structural Basis of GABAB Receptor Activation during Evolution” (Advanced Science, 2025)
